Sequences and labels used below:
B1: Azoarcus group I ribozyme (parent)
chain: GUGCCUUGCGCCGGGAAACCACGCAAGGGAUGGUGUCAAAUUCGGCGAAACCUAAGCGCCCGCCCGGGCGUAUGGCAACGCCGAGCCAAGCUUCGGCGCCUGCGCCGAUGAAGGUGUAGAGACUAGACGGCACCCACCUAAGGCAAACGCUAUGGUGAAGGCAUAGUCCAGGGAGUGGCGAAAGUCACACAAACCGG

The variants in the data set derive from B1. As to the kind of experiment: reverse-splicing fitness (ratio to wild type); higher = more active; in vitro selection; Mg2+ level not given. The procedure, abridged:
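An in vitro group I ribozyme library with randomized positions was T7-transcribed and gel-purified. In triplicate, 10 pmol RNA in EPPS pH 7.5 was reacted with 50 pmoles of a 30-nt RNA substrate for 1 h at 37 °C across several added MgCl2 levels (1–48 mM), then stopped with EDTA. Products were reverse transcribed from a substrate-complementary primer, PCR-amplified and sequenced (HiSeq 4000). Fitness is a variant's read proportion after selection over that before, normalised to wild type.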
On to GUGCCUUGCGCCGGGAAACCACGCAAGGGAUGGUGUCAAAUUCGGCGAAACCUAAGCGCCCGCCCGGGCGUAUGGCAACGCAGAGCCAAGCUUCGGCGCCUGCGCCGAUGCAGGUGUAGAGACUAGACGGCACCCACCUAAGGCCAACGAUAUGGUGAAGGCAUAGUCUAGGGAGGGGCGAAAGUCACACAAACCGG [C82A A111C A145C C150A C169U U176G], for which the reverse-splicing fitness worked out at 0.00856.

With GUGCCUUGCGCCGGGAAACCACGCAAGGGAUGGUGUCAAAUUCGGCGAAACCUAAGCGCCCGCCCGGGCGUAUGGCAACGCAGAGCCAAGCUUCGGCGCCUGCGCCGAUGCAGGUGUAGAGACUAGACGGCACCCACCUAAGGCCAACGAUAUGGUGAAGGCAUAGUCUAGGGAGAGGCGAAAGUCACACAAACCGG [C82A A111C A145C C150A C169U U176A], the reverse-splicing fitness stood at 0.0138.

Turning to GUGCCUUGCGCCGGGAAACCACGCAAGGGAUGGUGUCAAAUUCGGCGAAACCUAAGCGCCCGCCCGGGCGUAUGGCAACGCAGAGCCAAGCUUCGGCGCCUGCGCCGAUGCAGGUGUAGAGACUAGACGGCACCCACCUAAGGCCAACGAUAUGGUGAAGGCAUAGUCUAGGGAGCGGCGAAAGUCACACAAACCGG [C82A A111C A145C C150A C169U U176C], the reverse-splicing fitness stood at 0.0109.

GUGCCUUGCGCCGGGAAACCACGCAAGGGAUGGUGUCAAAUUCGGCGAAACCUAAGCGCCCGCCCGGGCGUAUGGCAACGCAGAGCCAAGCUUCGGCGCCUGCGCCGAUGCAGGUGUAGAGACUAGACGGCACCCACCUAAGGCCAACGAUAUGGUGAAGGCAUAGUCGAGGGAGCGGCGAAAGUCACACAAACCGG [C82A A111C A145C C150A C169G U176C]: the reverse-splicing fitness worked out at 0.0219.

GUGCCUUGCGCCGGGAAACCACGCAAGGGAUGGUGUCAAAUUCGGCGAAACCUAAGCGCCCGCCCGGGCGUAUGGCAACGCAGAGCCAAGCUUCGGCGCCUGCGCCGAUGCAGGUGUAGAGACUAGACGGCACCCACCUAAGGCCAACGAUAUGGUGAAGGCAUAGUCGAGGGAGAGGCGAAAGUCACACAAACCGG [C82A A111C A145C C150A C169G U176A]: the reverse-splicing fitness turned out to be 0.0264.

As to GUGCCUUGCGCCGGGAAACCACGCAAGGGAUGGUGUCAAAUUCGGCGAAACCUAAGCGCCCGCCCGGGCGUAUGGCAACGCAGAGCCAAGCUUCGGCGCCUGCGCCGAUGCAGGUGUAGAGACUAGACGGCACCCACCUAAGGCCAACGAUAUGGUGAAGGCAUAGUCGAGGGAGGGGCGAAAGUCACACAAACCGG [C82A A111C A145C C150A C169G U176G], the reverse-splicing fitness stood at 0.00943.

GUGCCUUGCGCCGGGAAACCACGCAAGGGAUGGUGUCAAAUUCGGCGAAACCUAAGCGCCCGCCCGGGCGUAUGGCAACGCAGAGCCAAGCUUCGGCGCCUGCGCCGAUGCAGGUGUAGUGACUAGACGGCACCCACCUAAGGCAAACGCUAUGGUGAAGGCAUAGUCAAGGGAGGGGCGAAAGUCACACAAACCGG [C82A A111C A120U C169A U176G]: the reverse-splicing fitness was found to be 0.00184.

For the variant GUGCCUUGCGCCGGGAAACCACGCAAGGGAUGGUGUCAAAUUCGGCGAAACCUAAGCGCCCGCCCGGGCGUAUGGCAACGCAGAGCCAAGCUUCGGCGCCUGCGCCGAUGCAGGUGUAGUGACUAGACGGCACCCACCUAAGGCAAACGCUAUGGUGAAGGCAUAGUCGAGGGAGAGGCGAAAGUCACACAAACCGG [C82A A111C A120U C169G U176A], the reverse-splicing fitness is 0.00421.

Regarding GUGCCUUGCGCCGGGAAACCACGCAAGGGAUGGUGUCAAAUUCGGCGAAACCUAAGCGCCCGCCCGGGCGUAUGGCAACGCAGAGCCAAGCUUCGGCGCCUGCGCCGAUGCAGGUGUAGUGACUAGACGGCACCCACCUAAGGCAAACGCUAUGGUGAAGGCAUAGUCGAGGGAGGGGCGAAAGUCACACAAACCGG [C82A A111C A120U C169G U176G], the reverse-splicing fitness stood at 0.00234.

Turning to GUGCCUUGCGCCGGGAAACCACGCAAGGGAUGGUGUCAAAUUCGGCGAAACCUAAGCGCCCGCCCGGGCGUAUGGCAACGCAGAGCCAAGCUUCGGCGCCUGCGCCGAUGCAGGUGUAGUGACUAGACGGCACCCACCUAAGGCAAACGCUAUGGUGAAGGCAUAGUCGAGGGAGCGGCGAAAGUCACACAAACCGG [C82A A111C A120U C169G U176C], the reverse-splicing fitness stood at 0.00315.

In the case of GUGCCUUGCGCCGGGAAACCACGCAAGGGAUGGUGUCAAAUUCGGCGAAACCUAAGCGCCCGCCCGGGCGUAUGGCAACGCAGAGCCAAGCUUCGGCGCCUGCGCCGAUGCAGGUGUAGUGACUAGACGGCACCCACCUAAGGCAAACGCUAUGGUGAAGGCAUAGUCUAGGGAGUGGCGAAAGUCACACAAACCGG [C82A A111C A120U C169U], the reverse-splicing fitness was determined as 0.00555.

For GUGCCUUGCGCCGGGAAACCACGCAAGGGAUGGUGUCAAAUUCGGCGAAACCUAAGCGCCCGCCCGGGCGUAUGGCAACGCAGAGCCAAGCUUCGGCGCCUGCGCCGAUGCAGGUGUAGUGACUAGACGGCACCCACCUAAGGCAAACGCUAUGGUGAAGGCAUAGUCGAGGGAGUGGCGAAAGUCACACAAACCGG [C82A A111C A120U C169G], the reverse-splicing fitness was found to be 0.00388.

On to GUGCCUUGCGCCGGGAAACCACGCAAGGGAUGGUGUCAAAUUCGGCGAAACCUAAGCGCCCGCCCGGGCGUAUGGCAACGCAGAGCCAAGCUUCGGCGCCUGCGCCGAUGCAGGUGUAGAGACUAGACGGCACCCACCUAAGGCCAACGAUAUGGUGAAGGCAUAGUCAAGGGAGAGGCGAAAGUCACACAAACCGG [C82A A111C A145C C150A C169A U176A], for which the reverse-splicing fitness was found to be 0.015.

For GUGCCUUGCGCCGGGAAACCACGCAAGGGAUGGUGUCAAAUUCGGCGAAACCUAAGCGCCCGCCCGGGCGUAUGGCAACGCAGAGCCAAGCUUCGGCGCCUGCGCCGAUGCAGGUGUAGAGACUAGACGGCACCCACCUAAGGCCAACGAUAUGGUGAAGGCAUAGUCAAGGGAGGGGCGAAAGUCACACAAACCGG [C82A A111C A145C C150A C169A U176G], the reverse-splicing fitness is 0.0103.

GUGCCUUGCGCCGGGAAACCACGCAAGGGAUGGUGUCAAAUUCGGCGAAACCUAAGCGCCCGCCCGGGCGUAUGGCAACGCAGAGCCAAGCUUCGGCGCCUGCGCCGAUGCAGGUGUAGAGACUAGACGGCACCCACCUAAGGCCAACGAUAUGGUGAAGGCAUAGUCAAGGGAGCGGCGAAAGUCACACAAACCGG [C82A A111C A145C C150A C169A U176C]: the reverse-splicing fitness came out at 0.0113.

The record behind these values is the RNAGym collection of RNA variant scans (doi:10.1093/molbev/msab373).
